The target of experiment [1] is T1, CD163 transfected Flp-In CHO cells (Homo sapiens, UniProt Q86VB7).
T1 construct: Stably transfected Chinese hamster ovary (CHO) cells expressing the full-length human CD163; expressed in transfected cells
The experiment can be described thus: Cellular binding and uptake (endocytosis) of 125I-labeled anti-CD163. It counts as cell-based. As to the method:
Monocytes were isolated from PBMC by negative selection using magnetic beads from Dynal (Dynabeads® MyPure™ Monocyte Kit 2; Invitrogen A/S, Taastrup, Denmark) according to instructions provided by the manufacturer. Monocyte preparations were more than 95% (CD14^+) pure determined by flow cytometry. The isolated cells were washed twice with phosphate-buffered saline. Monocyte-derived macrophages (MDMs) were prepared by cell culture of monocytes (approximately 1×10^7 cells) for 4 days in 5% CO2 and 37° C. in RPMI 1640 media (RPMI 1640+25 mM HEPES+I-glutamine) (Invitrogen Corporation, Carlsbad, Calif., USA) with 20% FCS containing 100 ng/ml of M-CSF. MDMs were then detached from the flask by incubation with cell dissociation buffer (Invitrogen A/S, Taastrup, Denmark) for 30 minutes at 4 °C, then flushed, and scraped. The cells were then cultured for 24 hours in RPMI 1640 media (RPMI 1640+25 mM HEPES+I-glutamine) (Invitrogen Corporation, Carlsbad, Calif., USA) supplemented with 20% FCS containing 100 ng/ml of M-CSF at 37° C. in 95% air and 5% CO2 in Lab-Tek™ Chamber Slides (Thermo Fisher Scientific, Roskilde, Denmark). 200 nM dexamethasone (Merck KGaA, Darmstadt, Germany) was added during culture to increase CD163 expression. Stably transfected Chinese hamster ovary (CHO) cells expressing the full-length human CD163, as described above, were cultured in serum-free CHO medium (HyQ-CCM, HyClone, Logan, Utah) containing 300 μg/ml Hygromycin B, as previously described (2).
Endocytosis of ^125I-labeled anti-CD163 was investigated in CD163 transfected Flp-In Chinese hamster ovary (CHO) cells and mock-transfected Flp-In as described (Madsen, M., Moller, H. J., Nielsen, M. J., Jacobsen, C., Graversen, J. H., van den Berg, T. and Moestrup, S. K. (2004) Molecular characterization of the haptoglobin.hemoglobin receptor CD163. Ligand binding properties of the scavenger receptor cysteine-rich domain region. J. Biol. Chem., 279, 51561-51567.)

Experiment [2] deals with T2, human CD163 LKIHEK containing mutants (VKVQEE-->LKIHEK and double mutant) (Homo sapiens, UniProt Q86VB7, E71K/Q69H/V66L/V68I).
T2 construct: a pcDNA5-FRT-humanCD163 plasmid harboring the full length human CD163 cDNA; expressed in transfected cells; host or cells: HEK 293, transient
T2 sequence (Q86VB7 42-1156 V66L/V68I/Q69H/E71K): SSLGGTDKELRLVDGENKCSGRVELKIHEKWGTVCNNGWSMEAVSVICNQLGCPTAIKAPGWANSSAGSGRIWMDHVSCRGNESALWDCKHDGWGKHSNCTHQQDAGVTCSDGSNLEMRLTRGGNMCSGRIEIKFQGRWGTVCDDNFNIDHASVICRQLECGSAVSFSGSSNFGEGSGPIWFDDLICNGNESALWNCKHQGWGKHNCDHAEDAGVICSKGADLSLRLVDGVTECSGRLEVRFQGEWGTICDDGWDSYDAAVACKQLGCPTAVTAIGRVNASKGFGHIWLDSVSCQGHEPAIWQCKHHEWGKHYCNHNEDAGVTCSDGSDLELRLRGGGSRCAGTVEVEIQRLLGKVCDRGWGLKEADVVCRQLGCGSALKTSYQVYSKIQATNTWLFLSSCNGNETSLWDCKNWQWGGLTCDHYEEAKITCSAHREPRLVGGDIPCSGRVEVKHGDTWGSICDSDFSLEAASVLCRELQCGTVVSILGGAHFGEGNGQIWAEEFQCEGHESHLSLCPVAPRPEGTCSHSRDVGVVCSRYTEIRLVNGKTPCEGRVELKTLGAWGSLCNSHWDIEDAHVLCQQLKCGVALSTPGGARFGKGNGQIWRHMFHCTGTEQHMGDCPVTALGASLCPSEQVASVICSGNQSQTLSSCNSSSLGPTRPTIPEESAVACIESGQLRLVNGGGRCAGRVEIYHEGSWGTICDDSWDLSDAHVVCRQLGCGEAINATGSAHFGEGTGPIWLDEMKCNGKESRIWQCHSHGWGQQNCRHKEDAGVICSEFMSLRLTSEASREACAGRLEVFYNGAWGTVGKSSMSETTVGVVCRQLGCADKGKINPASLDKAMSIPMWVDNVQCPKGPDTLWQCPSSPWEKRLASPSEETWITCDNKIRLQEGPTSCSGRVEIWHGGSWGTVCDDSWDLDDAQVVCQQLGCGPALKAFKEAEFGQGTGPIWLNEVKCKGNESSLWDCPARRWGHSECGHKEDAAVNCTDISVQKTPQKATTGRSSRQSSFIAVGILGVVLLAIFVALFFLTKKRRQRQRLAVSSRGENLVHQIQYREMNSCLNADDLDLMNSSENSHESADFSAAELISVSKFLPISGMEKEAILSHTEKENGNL
Put plainly: Western blotting of human CD163 and knock out mutants. Format: binding. The text has this:
(§1) For the mutant generation the Site-directed Ligation Independent Mutagenesis (SLIM) method was used (1). Primers are listed in the primer table. The template for the generation of the two first mutants was a pcDNA5-FRT-humanCD163 plasmid harboring the full length human CD163 cDNA. The primers LKI FT, RT, F, and R were used to generate the mutant plasmid pcDNA5-FRT-humanCD163 (VKVQEE-->LKIHEK). The primers R60D FT, RT, F, and R were used to generate the mutant plasmid pcDNA5-FRT-humanCD163 (R60D). Generation of a double mutant was done by performing a SLIM reaction on pcDNA5-FRT-humanCD163 (VKVQEE-->LKIHEK) with the primers R60D FT, RT, F, and R.
(§2) Each cell pellet was added 1 ml lysis buffer (10 mM Tris pH 8, 140 mM NaCl, 15 mM MgSO4, 1% Triton X-100) and incubated for 15 min at 4 °C with rotation. After centrifugation for 30 min at 6000 rpm the supernatants were sterile filtered.
(§3) 90 μl of each of the supernatants were added 30 μl of 4×LDS sample buffer. 3×20 μl samples of each supernatant and 8 μl SeeBlue plus2 prestained marker were loaded on NuPage 4-12% Bis-Tris-Gels (Invitrogen, Taastrup, Denmark) and the SDS-PAGEs were run with MOPS running buffer according to instructions of the manufacturer (200 V constant for 50 min). Blotting to PVDF membranes (Invitrogen, Taastrup, Denmark) was done on an iBLOT device according to instructions of the manufacturer. […]
In general terms: In western blotting, separated proteins are transferred to a membrane and probed.

The target in another experiment is T3, human CD163 R60D (Homo sapiens, UniProt Q86VB7, R112D).
T3 construct: a pcDNA5-FRT-humanCD163 plasmid harboring the full length human CD163 cDNA; expressed in transfected cells; host or cells: HEK 293, transient
T3 sequence (Q86VB7 42-1156 R112D): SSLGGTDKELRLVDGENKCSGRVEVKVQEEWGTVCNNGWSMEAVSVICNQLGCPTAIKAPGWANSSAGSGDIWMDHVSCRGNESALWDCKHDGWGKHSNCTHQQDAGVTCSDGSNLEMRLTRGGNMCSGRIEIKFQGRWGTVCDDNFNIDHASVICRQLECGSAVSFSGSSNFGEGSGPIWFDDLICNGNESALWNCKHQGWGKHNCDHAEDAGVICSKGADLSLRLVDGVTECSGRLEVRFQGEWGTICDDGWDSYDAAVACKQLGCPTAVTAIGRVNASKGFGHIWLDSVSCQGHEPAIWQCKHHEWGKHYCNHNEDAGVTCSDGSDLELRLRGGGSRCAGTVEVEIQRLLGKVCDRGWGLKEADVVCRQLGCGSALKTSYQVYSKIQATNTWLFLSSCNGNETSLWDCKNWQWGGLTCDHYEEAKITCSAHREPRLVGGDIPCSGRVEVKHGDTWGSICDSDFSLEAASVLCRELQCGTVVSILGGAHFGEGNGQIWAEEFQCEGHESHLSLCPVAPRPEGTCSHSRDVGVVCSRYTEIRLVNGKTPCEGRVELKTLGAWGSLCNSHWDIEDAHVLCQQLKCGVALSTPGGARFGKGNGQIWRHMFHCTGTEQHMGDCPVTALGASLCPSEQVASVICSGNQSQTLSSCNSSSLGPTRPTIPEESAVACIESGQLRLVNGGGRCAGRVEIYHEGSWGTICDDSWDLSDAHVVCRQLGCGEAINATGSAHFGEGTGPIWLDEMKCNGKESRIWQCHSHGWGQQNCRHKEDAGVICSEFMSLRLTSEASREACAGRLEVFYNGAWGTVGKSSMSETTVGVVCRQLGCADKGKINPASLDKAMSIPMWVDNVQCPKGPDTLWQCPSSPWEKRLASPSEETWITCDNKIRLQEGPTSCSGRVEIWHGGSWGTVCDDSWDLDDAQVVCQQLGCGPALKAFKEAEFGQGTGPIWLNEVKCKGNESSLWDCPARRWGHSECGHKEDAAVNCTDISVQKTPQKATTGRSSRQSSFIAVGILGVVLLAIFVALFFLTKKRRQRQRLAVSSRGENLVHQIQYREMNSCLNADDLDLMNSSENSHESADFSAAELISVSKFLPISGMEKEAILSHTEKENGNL
Described as above. Format: binding.
Source text: as §1, §2, §3

T1 sequence (Q86VB7 42-1156): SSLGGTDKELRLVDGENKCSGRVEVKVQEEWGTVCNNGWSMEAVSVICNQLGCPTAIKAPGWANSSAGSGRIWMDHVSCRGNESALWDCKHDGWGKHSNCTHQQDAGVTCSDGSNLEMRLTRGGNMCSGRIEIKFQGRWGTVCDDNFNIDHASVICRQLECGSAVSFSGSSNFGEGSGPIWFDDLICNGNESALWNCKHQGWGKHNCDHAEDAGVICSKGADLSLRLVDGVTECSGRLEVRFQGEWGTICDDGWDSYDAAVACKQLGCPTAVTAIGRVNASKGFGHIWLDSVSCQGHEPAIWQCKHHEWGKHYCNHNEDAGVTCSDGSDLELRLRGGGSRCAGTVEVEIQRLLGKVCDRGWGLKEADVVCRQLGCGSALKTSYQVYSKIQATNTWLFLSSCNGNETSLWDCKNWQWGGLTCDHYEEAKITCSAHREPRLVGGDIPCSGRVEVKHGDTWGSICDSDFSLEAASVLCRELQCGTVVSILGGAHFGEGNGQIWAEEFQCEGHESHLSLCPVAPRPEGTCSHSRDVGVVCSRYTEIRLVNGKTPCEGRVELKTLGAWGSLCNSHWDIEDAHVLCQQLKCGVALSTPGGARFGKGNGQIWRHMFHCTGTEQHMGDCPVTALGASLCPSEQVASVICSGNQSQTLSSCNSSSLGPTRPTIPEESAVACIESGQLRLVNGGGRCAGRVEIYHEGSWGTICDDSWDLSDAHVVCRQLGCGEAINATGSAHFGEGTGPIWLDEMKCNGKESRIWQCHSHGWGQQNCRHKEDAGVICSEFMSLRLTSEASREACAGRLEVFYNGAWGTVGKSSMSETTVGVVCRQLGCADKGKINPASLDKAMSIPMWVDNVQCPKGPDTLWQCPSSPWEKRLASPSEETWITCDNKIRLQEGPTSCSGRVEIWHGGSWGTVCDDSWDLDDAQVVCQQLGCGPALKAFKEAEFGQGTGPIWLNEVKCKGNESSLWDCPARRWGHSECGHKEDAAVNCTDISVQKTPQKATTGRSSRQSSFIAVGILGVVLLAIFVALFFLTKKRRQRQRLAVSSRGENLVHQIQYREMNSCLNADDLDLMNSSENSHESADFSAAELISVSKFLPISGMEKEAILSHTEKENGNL

B1: MAC2-158: anti-human CD163 murine mAb, binds SRCR domain 1, IQ Products; VH SEQ ID NO: 1, VL SEQ ID NO: 2 (antibody, V domains shown)
VH: DVQLQESGPGLVKPSQSLSLTCTVTGYSITSDYAWNWIRQFPGNKLEWMGYITYSGITNYNPSLKSQISITRDTSKNQFFLQLNSVTTEDTATYYCVSGTYYFDYWGQGTTLTVSS
VL: SVVMTQTPKSLLISIGDRVTITCKASQSVSSDVAWFQQKPGQSPKPLIYYASNRYTGVPDRFTGSGYGTDFTFTISSVQAEDLAVYFCGQDYTSPRTFGGGTKLEIKRA
modifications: Mac2-158 VH; Mac2-158 VL
Regarding B1, the “time course of cell-associated radioactivity (bound or internalized)” value in experiment [1] (125I-labelled mAb, increasing time points) is on record as “did not reach a plateau”. In experiment [1] (125I-labelled mAb, stable CD163 transfected Flp-In CHO cells), the “percentage of cell-associated radioactivity reached” value is reported as 61.27%. The “cellular uptake and binding to CD163-expressing cells” value in experiment [1] (compared with the other tested antibodies, FIG. 5) is recorded as “considerably higher”. Further, the “binding in western blot” value in experiment [2] is “No binding was detected”; in the experiment with human CD163 R60D, “very weak”.

For the origin of these results see patent US20170119790A1, “Agents, Uses and Methods” (CYTOGUIDE A/S, priority 2009, published 2017).
